biological target: HLA-A*02:01 (Homo sapiens, UniProt P04439, D140Y/D185E/D98H/E176V/E277Q/G131W/G231S/I119V/I121R/I166T/I218V/L300P/L318F/N151K/N90K/P208A/P217A/Q86G/Q94H/R138H/R169H/T345S); experiment: MHC binding assay: UV-ligand exchange and β2m ELISA (peptide exchange yield, Table 7); details: binding of HLA-class I restricted peptides to HLA-A*02:01, UV-ligand exchange
Excerpt: Candidate peptides for T cell based therapies according to the present invention were further tested for their MHC binding capacity (affinity). The individual peptide-MHC complexes were produced by UV-ligand exchange, where a UV-sensitive peptide is cleaved upon UV-irradiation, and exchanged with the peptide of interest as analyzed. Only peptide candidates that can effectively bind and stabilize the peptide-receptive MHC molecules prevent dissociation of the MHC complexes. To determine the yield of the exchange reaction, an ELISA was performed based on the detection of the light chain (β2 m) of stabilized MHC complexes. The assay was performed as generally described in Rodenko et al. (Rodenko et al., 2006).
96 well MAXISorp plates (NUNC) were coated over night with 2 ug/ml streptavidin in PBS at room temperature, washed 4× and blocked for 1 h at 37° C. in 2% BSA containing blocking buffer. Refolded HLA-A*02:01/MLA-001 monomers served as standards, covering the range of 15-500 ng/ml. Peptide-MHC monomers of the UV-exchange reaction were diluted 100 fold in blocking buffer. Samples were incubated for 1 h at 37° C., washed four times, incubated with 2 ug/ml HRP conjugated anti-β2 m for 1 h at 37° C., washed again and detected with TMB solution that is stopped with […]. Absorption was measured at 450 nm. Candidate peptides that show a high exchange yield (preferably higher than 50%, most preferred higher than 75%) are generally preferred for a generation and production of antibodies or fragments thereof, and/or T cell receptors or fragments thereof, as they show sufficient avidity to the MHC molecules and prevent dissociation of the MHC complexes.

Peptide exchange (MHC class I binding score, peptide exchange yield)	Substance
++ (≥20% = ++)	266 (FLLDKPQDL; listed as Homo sapiens) [compound 266]
++ (≥20% = ++)	216 (ALSTVTPRI; listed as Homo sapiens) [compound 216]
+++ (≥50% = +++)	131 (SLYPHFTLL; listed as Homo sapiens) [compound 131]
+++ (≥50% = +++)	220 (ALSELERVL; listed as Homo sapiens) [compound 220]
+++ (≥50% = +++)	210 (GLAGDNIYL; listed as Homo sapiens) [compound 210]
++ (≥20% = ++)	203 (FLFVDPELV; listed as Homo sapiens) [compound 203]
++ (≥20% = ++)	115 (ILHGEVNKV; listed as Homo sapiens) [compound 115]
++ (≥20% = ++)	129 (KMASKVTQV; listed as Homo sapiens) [compound 129]
+++ (≥50% = +++)	249 (YLYQILQGI; listed as Homo sapiens) [compound 249]
+++ (≥50% = +++)	250 (LMQDSRLYL; listed as Homo sapiens) [compound 250]
+++ (≥50% = +++)	224 (LLFDWSGTGRADA; listed as Homo sapiens) [compound 224]
++ (≥20% = ++)	192 (TLLPSSGLVTL; listed as Homo sapiens) [compound 192]
+++ (≥50% = +++)	225 (FLPQPVPLSV; listed as Homo sapiens) [compound 225]
+++ (≥50% = +++)	236 (KMSELQTYV; listed as Homo sapiens) [compound 236]
++ (≥20% = ++)	124 (ALLLRLFTI; listed as Homo sapiens) [compound 124]
+++ (≥50% = +++)	211 (LLTTVLINA; listed as Homo sapiens) [compound 211]
+++ (≥50% = +++)	122 (SIIDTELKV; listed as Homo sapiens) [compound 122]
+++ (≥50% = +++)	271 (VLIEYNFSI; listed as Homo sapiens) [compound 271]
+++ (≥50% = +++)	277 (KLQEELNKV; listed as Homo sapiens) [compound 277]
+++ (≥50% = +++)	226 (SLAGNLQEL; listed as Homo sapiens) [compound 226]
+++ (≥50% = +++)	265 (FLLDKPQDLSI; listed as Homo sapiens) [compound 265]
+++ (≥50% = +++)	180 (RLYEEEIRI; listed as Homo sapiens) [compound 180]
++ (≥20% = ++)	187 (SILKEDPFL; listed as Homo sapiens) [compound 187]
+++ (≥50% = +++)	262 (LLLEAVWHL; listed as Homo sapiens) [compound 262]
++ (≥20% = ++)	272 (FVMEGEPPKL; listed as Homo sapiens) [compound 272]
++ (≥20% = ++)	245 (ALLEEEEGV; listed as Homo sapiens) [compound 245]
++ (≥20% = ++)	273 (SLNKQIETV; listed as Homo sapiens) [compound 273]
+++ (≥50% = +++)	255 (FLMKNSDLYGA; listed as Homo sapiens) [compound 255]
+++ (≥50% = +++)	213 (ILAVDGVLSV; listed as Homo sapiens) [compound 213]
+++ (≥50% = +++)	242 (KLQEEIPVL; listed as Homo sapiens) [compound 242]

Continued, substance first:

Substance	Peptide exchange (MHC class I binding score, peptide exchange yield)
13 (RLHDENILL; listed as Homo sapiens) [compound 13]	+++ (≥50% = +++)
83 (GLLENSPHL; listed as Homo sapiens) [compound 83]	++ (≥20% = ++)
81 (ILAEEPIYI; listed as Homo sapiens) [compound 81]	++ (≥20% = ++)
60 (YLFSQGLQGL; listed as Homo sapiens) [compound 60]	+++ (≥50% = +++)
14 (YTFSGDVQL; listed as Homo sapiens) [compound 14]	+++ (≥50% = +++)
110 (QIQGQVSEV; listed as Homo sapiens) [compound 110]	++ (≥20% = ++)
20 (ALVEKGEFAL; listed as Homo sapiens) [compound 20]	++ (≥20% = ++)
54 (YLVPGLVAA; listed as Homo sapiens) [compound 54]	+++ (≥50% = +++)
23 (ALLSPLSLA; listed as Homo sapiens) [compound 23]	+++ (≥50% = +++)
114 (LLFPSDVQTL; listed as Homo sapiens) [compound 114]	++ (≥20% = ++)
100 (ALQSFEFRV; listed as Homo sapiens) [compound 100]	+++ (≥50% = +++)
61 (ALYPKEITL; listed as Homo sapiens) [compound 61]	+++ (≥50% = +++)
50 (ILLSVLHQL; listed as Homo sapiens) [compound 50]	+++ (≥50% = +++)
71 (HMSGKLTNV; listed as Homo sapiens) [compound 71]	++ (≥20% = ++)
88 (LLLPLELSLA; listed as Homo sapiens) [compound 88]	+++ (≥50% = +++)
59 (ALADGIKSFLL; listed as Homo sapiens) [compound 59]	+++ (≥50% = +++)
101 (SLLEVNEASSV; listed as Homo sapiens) [compound 101]	+++ (≥50% = +++)
36 (TVLQELINV; listed as Homo sapiens) [compound 36]	+++ (≥50% = +++)
6 (FLNAIETAL; listed as Homo sapiens) [compound 6]	++++ (≥75% = ++++)
40 (KIWEELSVLEV; listed as Homo sapiens) [compound 40]	+++ (≥50% = +++)
77 (ALYGNVQQV; listed as Homo sapiens) [compound 77]	+++ (≥50% = +++)

Reference: patent US9994628B2, “Peptides and combination of peptides for use in immunotherapy against various tumors” (IMMATICS BIOTECHNOLOGIES GMBH, priority 2015, dated 2018)
